± gives the uncertainty stated by the source.
experiment: amyloid nucleation score (Sup35N fusion, yeast selection) (log enrichment); library NNK3; higher = more nucleation; inactive = no reads after selection
Summary of the method: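 Nucleation score is defined as the DiMSum log enrichment of output over input reads, with centring on the mode score of non-aggregating sequences. A minimum of 100 input reads was required for each sequence. Reads came from Illumina sequencing of plasmid inserts from psi-negative yeast expressing Sup35N fused to peptides of 20 random codons, induced with 100 μM copper sulfate for 24 hours and grown 7 days at 30°C on medium lacking adenine and uracil.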

Substance | amyloid nucleation score
VCLFICLNDDFLIRRPDCLS | 2.08 ± 0.051
VCRFYIGFTYWLSCC | inactive
VCWSHNPRPTDDY | inactive
VCYNLCRKIPDSLSKIPDRR | inactive
VDKLGSYPMPLVLGVVNTYQ | inactive
VDKQPDLIAHRMWTKVG | inactive
VDTKFSISYTGKTC | inactive
VDVSRTFALCHRDLPMMP | inactive
VDWKVAR | inactive
VDYSRALTAYVCIPANFSVP | inactive
VECNIEIHNISSFPSTEKNQ | 2.41 ± 0.06
VEHHDFSRSSSAYTRVL | inactive
VELTC | inactive
VEMGDSVRSRGYSISVFLRK | inactive
VERKNVLFRYHAVGFVLGDV | inactive
VERSSLVEWSCDRVSKWYFV | 0.298 ± 0.74
VEYLFVNCWSTE | inactive
VFDYADDYYTVNGTVLSPAE | -0.283 ± 0.32
VFEAAALVCNCGTWDRGLND | 1.79 ± 0.1
VFISRKCWRNHNF | inactive
VFKWWM | 1.2 ± 0.16
VFLSSELSTLLVVYRLLGSG | inactive
VFLVQFFFINFLGNSN | 2.45 ± 0.067

Substance | amyloid nucleation score
VFLYTNKYRYGCCGFAFTPF | inactive
VFNLLYVGFHVDSIGVGCVI | 1.97 ± 0.096
VFNRSSAT | inactive
VFPFIRNKV | inactive
VFPFSSFFKFLQRSWCGRDE | 1.22 ± 0.12
VFRLKSVLSGLLQAHRLAGI | inactive
VFTSGLCEKS | 0.195 ± 0.72
VFTWILSDSHTSMWFRCQGG | inactive
VGGQISRDNGCLSILMSFDN | inactive
VGKFRLMIHVTSHYGFCDLF | inactive
VGLALRLCLAVLSDRKWILS | inactive
VGLFRESPWEV | inactive
VGLRNLGFVMFSRWLTPLLI | inactive
VGLSYVMINLGLPYLGRSAT | 1.83 ± 0.082
VGMRNTSLRCLVLIG | inactive
VGRAD | inactive
VGRPTASGLRNCMWSLSWCV | inactive
VGWIHYCQGTYKRMFGITGR | inactive
VGYAGVIIEKKYHCPKKSAF | inactive
VGYTNLVFGDLLLFCMFNWD | 0.109 ± 0.45
VHFLILETFKQNMWGYDLTL | inactive
VHGIRSELDRYLMNTNSTEL | inactive
VHLNPEN | inactive

Substance | amyloid nucleation score
VHVSVCRSKGWHDLWRIKCV | inactive
VHYSWSTFFD | 0.593 ± 0.27
VICGGNRLRSIQWTFWLWDN | inactive
VIFFSRSAYYKVISGRVI | inactive
VIHEDMVLTGF | inactive
VIHSLLALTDLMSKSYLTIY | inactive
VIMRMFSFARLFVGSYPFRV | inactive
VIRIGDPILTV | inactive
VIRPFVYGDNLVSSTTAMIF | inactive
VIVELVCLVMFNVWVGKGLW | -0.054 ± 0.31
VIYISCFTVLLVFLVNTPLR | 1.2 ± 0.11
VKEPMVPITLLSSTSSLDGM | inactive
VKFIYRLEQNEDSAQNSRMG | inactive
VKGQCHYYLLSQLSGSSPVI | inactive
VKISYDKSRHVCLCGFSSM | 2.37 ± 0.077
VKIYLSPTWEHIDRVYNCAL | 1.59 ± 0.059
VKLKNLSCKRLLRRHSACHR | inactive
VKLSSFCRSNNCWYMRHAFL | inactive
VKRGCCLVICWARFNVSEAH | inactive
VKRVKMLAYPRHFLLMMSGK | inactive
VKVEPVRLLWTHVWKS | inactive
VKWTQE | inactive
VLCAYK | inactive

Substance | amyloid nucleation score
VLCGLARVKEVIASRRWECG | inactive
VLCHQCWCRKIWPMN | inactive
VLCPFRLFMSNTYLTFAMSC | inactive
VLCVETTCPVGDIMECCLLP | inactive
VLEMMWVD | 0.144 ± 0.64
VLGVEECGYWLD | inactive
VLGYILMRLRLYKIQVDISG | inactive
VLMGRCLPRWLLYEELLVYV | inactive
VLMQSS | -0.36 ± 1.2
VLPCVMYNIHPQITCRR | inactive
VLRCTSPIES | inactive
VLRTTECVQG | inactive
VLRVLLGFDKFTATISTPDG | 0.323 ± 0.28
VLRVMCRCDCNTGFAKRESV | inactive
VLSFRSRTSKNKFRGAQGVT | inactive
VLTLIFFYFRISCICPFLL | inactive
VLYGTSASWSEFEFDHVIHV | inactive
VMAHFWRGKLLRSYVDRWRG | inactive
VMDGFHKHIFFVVCTSRHNF | 0.271 ± 0.77
VMKHHALGLEEWPQYTSYAW | inactive
VMMFSELGCCVLCGPLKDNM | 1.62 ± 0.06
VMTAVRAD | inactive
VMYNYARFRWFLCTDQ | 1 ± 0.2

Substance | amyloid nucleation score
VMYWLYRINDSSQSFFSYFS | inactive
VNDWWVSGW | inactive
VNELSFSTSF | inactive
VNFVSFRP | inactive
VNFWMMRHAGCCKVHNKLSV | inactive
VNLNKGLRWNYFGDDMKPHR | 1.19 ± 0.073
VNLSFNCWFDVVCVSSRF | 1.9 ± 0.07
VNLYGSRL | inactive
VNNPVLFFQ | inactive
VNRNFILSSLVH | inactive
VNTATCYQ | inactive
VNTEG | inactive
VNVDLPLARNHWYPSPIYMV | -0.654 ± 0.84
VPGELGALGQACLKEDFSKG | inactive
VPGFLGLTLHLLRREHQQNH | inactive
VPNDKVGKLRIMGREWVRSH | inactive
VPNLEVSLKAFSSIVSFVRG | inactive
VQHFRHQSASELV | inactive
VQIRAANLTYNRQCQSHLFS | inactive
VQISIDKAWMRTSTCSIGSK | inactive
VQSSIESLPDPIFRYLQSIS | inactive
VRALNTAAWLSNTRCLGMDA | inactive
VRARFHDGQF | -1.05 ± 2.4

Substance | amyloid nucleation score
VRCVGGHSHDHWETVWGVFG | inactive
VRDVDKMC | inactive
VREMGLTHFTASLYRGEMPG | inactive
VRFCSEMVCLDYFSNIMHLG | inactive
VRFKRVYCSG | inactive
VRFVSYRLVGSV | inactive
VRGTGVVDRLGLGRWDRPEG | inactive
VRHNLLGCLLGSFLGASSNR | -0.306 ± 0.37
VRHVITSSG | inactive
VRIFYMV | inactive
VRISMRDMVWSRFWLPVVLK | inactive
VRLCRGS | inactive
VRNILRLNRFCWCKTLQKIA | inactive
VRNWTDD | inactive
VRPFPFTWSSSNKEV | inactive
VRRHAF | inactive
VRTLPDLLPINRKQMVKERM | inactive
VRVDDKSNCVTRRFKP | inactive
VRVTLWYQTNMGIFEGHSRN | inactive
VSGFERVHGKGSN | inactive
VSGSEFLDFKQLVYTLDAAC | 0.481 ± 0.35
VSHFSSRHKRTEVRSGSPQT | inactive
VSHNSCGQTAESLNNFKTWS | inactive

Substance | amyloid nucleation score
VSHTSNTTYRWRMFIYWSAF | 0.104 ± 0.26
VSKESILGGRCVM | inactive
VSLFRSLGNLSFSSIWLPSP | inactive
VSLLMRASGSCLNMQVYSGF | 1.57 ± 0.11
VSLPSVIKYNDS | inactive
VSLTGWSR | inactive
VSLYCVIWIR | 1.22 ± 0.094
VSMVPRNIWCEMFCQTHADI | 1.26 ± 0.1
VSPMVALCCFCLKEMNFGVH | 2.92 ± 0.069
VSRSRER | inactive
VSSFWFCLS | inactive
VSSTVGMV | 0.175 ± 0.29
VSVLYYLKY | 0.132 ± 0.28
VSYEWPSQMFRPRVPLALAT | inactive
VSYGPA | inactive
VSYKKDCMQTSLRLVITF | inactive
VTFKDMDTHGWVHLSIHVAE | inactive
VTGEYLRMAISGCRG | inactive
VTGMFDSSLRRKMKVPVWAI | inactive
VTKGWQGLGGLMGGEVCPWV | inactive
VTLADEDGYKFLTLVKVLTY | inactive
VTLMLSITSP | inactive
VTLSGCIDLVWVCGVT | 2.01 ± 0.099
